# Assay results taken from the supplement of paper PMC11246515.
# ± gives the standard deviation of the averaged measurements.
# Assay: total protein half-life in vivo (active degradation + dilution); higher = more stable protein
# [1] = E. coli NCM3722 delta-clpP delta-lon delta-hslV, growth: N-lim chemostat, doubling time 6 h
# [2] = E. coli NCM3722 delta-clpP, growth: N-lim chemostat, doubling time 6 h
# [3] = E. coli NCM3722 delta-hslV, growth: N-lim chemostat, doubling time 6 h
# [4] = E. coli NCM3722 delta-lon, growth: N-lim chemostat, doubling time 6 h
# [5] = E. coli NCM3722 delta-smpB, growth: N-lim chemostat, doubling time 6 h
# [6] = wild type E. coli NCM3722, growth: C-lim chemostat, doubling time 3 h
# [7] = wild type E. coli NCM3722, growth: C-lim chemostat, doubling time 6 h
# [8] = wild type E. coli NCM3722, growth: C-lim chemostat, doubling time 12 h
# [9] = wild type E. coli NCM3722, growth: N-lim chemostat, doubling time 6 h
# [10] = wild type E. coli NCM3722, growth: N-lim chemostat, doubling time 12 h
# [11] = wild type E. coli NCM3722, growth: P-lim chemostat, doubling time 6 h
# [12] = wild type E. coli NCM3722, growth: P-lim chemostat, doubling time 12 h
Sequence,total protein half-life in vivo [1] [h],total protein half-life in vivo [2] [h],total protein half-life in vivo [3] [h],total protein half-life in vivo [4] [h],total protein half-life in vivo [5] [h],total protein half-life in vivo [6] [h],total protein half-life in vivo [7] [h],total protein half-life in vivo [8] [h],total protein half-life in vivo [9] [h],total protein half-life in vivo [10] [h],total protein half-life in vivo [11] [h],total protein half-life in vivo [12] [h]
MSLLNVPAGKDLPEDIYVVIEIPANADPIKYEIDKESGALFVDRFMSTAMFYPCNYGYINHTLSLDGDPVDVLVPTPYPLQPGSVIRCRPVGVLKMTDEAGEDAKLVAVPHSKLSKEYDHIKDVNDLPELLKAQIAHFFEHYKDLEKGKWVKVEGWENAEAAKAEIVASFERAKNK [P0A7A9],5.91 ± 0.78,4.83 ± 0.22,5.09 ± 0.49,6.36 ± 0.52,5.358 ± 0.02,3.48 ± 0.71,5.73 ± 0.47,10.6 ± 0.65,4.34 ± 0.4,8.63 ± 0.47,5.65 ± 1.4,14.4 ± 1.1
MSLNMFWFLPTHGDGHYLGTEEGSRPVDHGYLQQIAQAADRLGYTGVLIPTGRSCEDAWLVAASMIPVTQRLKFLVALRPSVTSPTVAARQAATLDRLSNGRALFNLVTGSDPQELAGDGVFLDHSERYEASAEFTQVWRRLLQRETVDFNGKHIHVRGAKLLFPAIQQPYPPLYFGGSSDVAQELAAEQVDLYLTWGEPPELVKEKIEQVRAKAAAHGRKIRFGIRLHVIVRETNDEAWQAAERLISHLDDETIAKAQAAFARTDSVGQQRMAALHNGKRDNLEISPNLWAGVGLVRGGAGTALVGDGPTVAARINEYAALGIDSFVLSGYPHLEEAYRVGELLFPLLDVAIPEIPQPQPLNPQGEAVANDFIPRKVAQS,5.43 ± 0.79,–,–,–,–,–,–,–,–,–,–,–
MSLPFLRTLQGDRFFQLLILVGIGLSFFVPFAPKSWPAAIDWHTIITLSGLMLLTKGVELSGYFDVLGRKMVRRFATERRLAMFMVLAAALLSTFLTNDVALFIVVPLTITLKRLCEIPVNRLIIFEALAVNAGSLLTPIGNPQNILIWGRSGLSFAGFIAQMAPLAGAMMLTLLLLCWCCFPGKAMQYHTGVQTPEWKPRLVWSCLGLYIVFLTALEFKQELWGLVIVAAGFALLARRVVLSVDWTLLLVFMAMFIDVHLLTQLPALQGVLGNVSHLSEPGLWLTAIGLSQVISNVPSTILLLNYVPPSLLLVWAVNVGGFGLLPGSLANLIALRMANDRRIWWRFHLYSIPMLLWAALVGYVLLVILPAN,–,–,–,–,–,–,–,–,–,9.39,–,–
MSLSRRQFIQASGIALCAGAVPLKASAAGQQQPLPVPPLLESRRGQPLFMTVQRAHWSFTPGTRASVWGINGRYLGPTIRVWKGDDVKLIYSNRLTENVSMTVAGLQVPGPLMGGPARMMSPNADWAPVLPIRQNAATLWYHANTPNRTAQQVYNGLAGMWLVEDEVSKSLPIPNHYGVDDFPVIIQDKRLDNFGTPEYNEPGSGGFVGDTLLVNGVQSPYVEVSRGWVRLRLLNASNSRRYQLQMNDGRPLHVISGDQGFLPAPVSVKQLSLAPGERREILVDMSNGDEVSITCGEAASIVDRIRGFFEPSSILVSTLVLTLRPTGLLPLVTDSLPMRLLPTEIMAGSPIRSRDISLGDDPGINGQLWDVNRIDVTAQQGTWERWTVRADEPQAFHIEGVMFQIRNVNGAMPFPEDRGWKDTVWVDGQVELLVYFGQPSWAHFPFYFNSQTLEMADRGSIGQLLVNPVP,6.39 ± 0.28,6.3 ± 0.19,6.17 ± 0.57,6.21 ± 0.34,6.12 ± 0.66,3.28 ± 0.037,6.047 ± 0.037,11.19 ± 0.06,6.13 ± 0.41,13.5 ± 0.45,5.88 ± 0.35,12.5 ± 0.35
MSMIKSYAAKEAGGELEVYEYDPGELRPQDVEVQVDYCGICHSDLSMIDNEWGFSQYPLVAGHEVIGRVVALGSAAQDKGLQVGQRVGIGWTARSCGHCDACISGNQINCEQGAVPTIMNRGGFAEKLRADWQWVIPLPENIDIESAGPLLCGGITVFKPLLMHHITATSRVGVIGIGGLGHIAIKLLHAMGCEVTAFSSNPAKEQEVLAMGADKVVNSRDPQALKALAGQFDLIINTVNVSLDWQPYFEALTYGGNFHTVGAVLTPLSVPAFTLIAGDRSVSGSATGTPYELRKLMRFAARSKVAPTTELFPMSKINDAIQHVRDGKARYRVVLKADF,5.793 ± 0.025,5.68 ± 0.17,–,5.65 ± 0.11,5.22 ± 1.4,2.17 ± 0.36,6.43 ± 1.3,11 ± 1.4,5.42 ± 0.12,10.8 ± 0.24,5.84 ± 0.26,11.9 ± 0.73
MSMSTSTEVIAHHWAFAIFLIVAIGLCCLMLVGGWFLGGRARARSKNVPFESGIDSVGSARLRLSAKFYLVAMFFVIFDVEALYLFAWSTSIRESGWVGFVEAAIFIFVLLAGLVYLVRIGALDWTPARSRRERMNPETNSIANRQR [P0AFC3],7.01 ± 0.28,–,6.15 ± 1.1,–,6.317 ± 0.023,3.72 ± 0.32,–,13 ± 0.5,6.22 ± 0.18,–,6.293 ± 0.024,14.3 ± 2.1
MSMVETAPSKIQVRNLNFYYGKFHALKNINLDIAKNQVTAFIGPSGCGKSTLLRTFNKMFELYPEQRAEGEILLDGDNILTNSQDIALLRAKVGMVFQKPTPFPMSIYDNIAFGVRLFEKLSRADMDERVQWALTKAALWNETKDKLHQSGYSLSGGQQQRLCIARGIAIRPEVLLLDEPCSALDPISTGRIEELITELKQDYTVVIVTHNMQQAARCSDHTAFMYLGELIEFSNTDDLFTKPAKKQTEDYITGRYG [P0AAH0],5.28 ± 0.14,–,4.78 ± 0.28,5.5 ± 0.56,4.68 ± 0.39,3.05 ± 0.094,–,9.16 ± 0.51,4.81 ± 0.24,9.09 ± 0.47,5.49 ± 0.53,12.1 ± 0.36
